The supplement of paper PMC7877785
± gives the uncertainty stated by the source.

Assay: self-splicing fitness, log relative to wild type (ln ratio); higher = more splicing; Tetrahymena group I intron in knt gene, E. coli kanamycin selection, DiMSum; sequences stand for … in CUCUCU…GGAGGGAAAAGUUAUCAGGCAUGCACCUGGUAGCUAGUCUUUAAACCAAUAGAUUGCAUCGGUUUAAAAGGCAAGACCGUCAAAUUGCGGGAAAGGGGUCAACAGCCGUUCAGUACCAAGUCUCAGGGGAAACUUUGAGAUGGCCUUGCAAAGGGUAUGGUAAUAAGCUGACGGACAUGGUCCUAACCACGCAGCCAAGUCCUAAGUCAACAGAUCUUCUGUUGAUAUGGAUGCAGUUCACAGACUAAAUGUCGGUCGGGGAAGAUGUAUUCUUCUCAUAAGAUAUAGUCGGACCUCUCCUUAAUGGGAGCUAGCGGAUGAAGUGAUGCAACACUGGAGCCGCUGGGAACUAAUUUGUAUGCGAAAGUAUAUUGAUUAGUUUUGGAGUACUCGUGGUCG
Procedure, shortened: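 Six replicate transformations of E. coli BL21(DE3) with a pET-22b(+) library were grown overnight at 37°C or 30°C. The library randomised all eight P1ex-region intron nucleotides, the intron lying in the knt kanamycin-resistance gene, and plates were LB agar with or without 25 μg/mL kanamycin plus 100 μg/mL carbenicillin, 50 μM IPTG and 0.2% rhamnose. Pooled colonies were amplicon-sequenced on an Illumina HiSeq 2500, and fitness is the DiMSum error-weighted combination of wild-type-normalised replicate fold changes, kanamycin versus none.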

Sequence	self-splicing fitness (ln) (30 °C)	self-splicing fitness (ln) (37 °C)
UUUUAGCAAUAUUACGUUAG	-1.37 ± 0.13	-2.02 ± 0.21
UGUCAGCAAUAUUACGGAAU	-2.63 ± 0.15	-0.922 ± 0.14
GACUAGCAAUAUUACGCAAC	-0.979 ± 0.15	-1.54 ± 0.19
ACAAAGCAAUAUUACGGGAC	-3.25 ± 0.17	-1.96 ± 0.14
AUUAAGCAAUAUUACGUUAG	-2.76 ± 0.23	-3.12 ± 0.27
UUUCAGCAAUAUUACGUGCG	-1.27 ± 0.12	0.0636 ± 0.11
GUCAAGCAAUAUUACGUAGA	-2.04 ± 0.1	-1.17 ± 0.12
ACUCAGCAAUAUUACGAACA	-1.16 ± 0.076	-0.892 ± 0.09
UCCUAGCAAUAUUACGCUCC	-3.73 ± 0.33	-0.747 ± 0.24
ACUCAGCAAUAUUACGAAGU	-3 ± 0.14	-1.75 ± 0.14
CAUUAGCAAUAUUACGGACU	-2.75 ± 0.28	-1.89 ± 0.23
GCUUAGCAAUAUUACGCUUA	-0.849 ± 0.11	-0.925 ± 0.14
ACGGAGCAAUAUUACGACUA	-2.73 ± 0.35	-2.09 ± 0.24
AGCAAGCAAUAUUACGUGCG	-1.25 ± 0.069	-1.05 ± 0.087
UGUCAGCAAUAUUACGGACG	-2.2 ± 0.15	-1.34 ± 0.18
CACCAGCAAUAUUACGCUAC	-5.01 ± 0.45	-2.1 ± 0.16
GGUUAGCAAUAUUACGGUUC	-0.571 ± 0.086	-0.114 ± 0.11
UUAAAGCAAUAUUACGUGAG	-0.984 ± 0.063	-0.201 ± 0.1
GAGUAGCAAUAUUACGCUGG	-2.77 ± 0.29	-1.48 ± 0.25
CUUCAGCAAUAUUACGGUAC	-3.21 ± 0.35	-2.02 ± 0.33
GUCCAGCAAUAUUACGGCCA	-0.678 ± 0.13	-0.279 ± 0.14
AAAUAGCAAUAUUACGCGUC	-2.19 ± 0.16	-0.755 ± 0.19

Sequence	self-splicing fitness (ln) (30 °C)	self-splicing fitness (ln) (37 °C)
AAUCAGCAAUAUUACGUAAG	-0.572 ± 0.075	-0.104 ± 0.1
UGACAGCAAUAUUACGAAAC	-3.96 ± 0.24	-1.96 ± 0.26
GGAUAGCAAUAUUACGACAC	-0.106 ± 0.11	0.407 ± 0.14
AACUAGCAAUAUUACGAUAG	-3.19 ± 0.19	-1.77 ± 0.13
GUUGAGCAAUAUUACGGACA	-0.932 ± 0.47	-1.32 ± 0.43
CUUUAGCAAUAUUACGCUUG	-2.98 ± 0.16	-2.32 ± 0.17
CCACAGCAAUAUUACGAGUC	-3.55 ± 0.24	-2.7 ± 0.22
GGCGAGCAAUAUUACGCAGA	-3.15 ± 0.4	-2.31 ± 0.23
GUGGAGCAAUAUUACGCUCC	-1.83 ± 0.35	–
AAGGAGCAAUAUUACGGUGU	-3.44 ± 0.24	-1.77 ± 0.19
AAUCAGCAAUAUUACGGUCA	0.236 ± 0.1	0.432 ± 0.12
AGUGAGCAAUAUUACGGGCC	-3.49 ± 0.4	-2.02 ± 0.34
CCGCAGCAAUAUUACGAAGC	-3.14 ± 0.22	-3.36 ± 0.25
CGUAAGCAAUAUUACGGUCG	-0.611 ± 0.12	0.212 ± 0.14
UUAAAGCAAUAUUACGAAAU	-3.49 ± 0.3	-2.12 ± 0.24
AACUAGCAAUAUUACGGGCA	-0.872 ± 0.079	-0.13 ± 0.088
AAAAAGCAAUAUUACGAAAG	-2.31 ± 0.098	-1.03 ± 0.12
UCUGAGCAAUAUUACGUCAU	-3.81 ± 0.35	-2.76 ± 0.2
CAUUAGCAAUAUUACGGUGG	-0.719 ± 0.066	0.024 ± 0.093
AAAUAGCAAUAUUACGAGAA	–	-0.893 ± 0.23
UUGUAGCAAUAUUACGUAAC	–	-2.12 ± 0.43
